Measured values: patent publication US20210363269A1 (ALX ONCOLOGY, published 2021)
Numbering of substitutions follows the chain as printed.

T1: C57BL/6 mouse SIRP-α D1 domain (mouse (C57BL/6 strain), UniProt P97797 32-148)
T1 sequence: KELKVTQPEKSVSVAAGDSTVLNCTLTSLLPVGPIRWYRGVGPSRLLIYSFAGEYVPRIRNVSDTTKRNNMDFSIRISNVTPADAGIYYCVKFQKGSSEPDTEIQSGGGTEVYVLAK

T2: cynomolgus SIRP-α D1 domain (cyno1) (cynomolgus monkey, UniProt Q5TFQ8 30-148 (human entry), limits assumed)
T2 chain: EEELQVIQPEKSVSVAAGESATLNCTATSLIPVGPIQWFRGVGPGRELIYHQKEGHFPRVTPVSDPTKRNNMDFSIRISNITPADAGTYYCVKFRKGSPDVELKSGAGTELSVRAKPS

T3: BALBc mouse SIRP-α (mouse (BALB/c strain))
T3 chain: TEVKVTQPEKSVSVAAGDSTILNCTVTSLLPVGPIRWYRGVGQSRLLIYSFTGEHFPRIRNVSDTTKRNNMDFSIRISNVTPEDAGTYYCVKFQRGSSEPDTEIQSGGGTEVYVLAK

T4: NOD mouse SIRP-α (mouse (NOD strain))
T4 chain: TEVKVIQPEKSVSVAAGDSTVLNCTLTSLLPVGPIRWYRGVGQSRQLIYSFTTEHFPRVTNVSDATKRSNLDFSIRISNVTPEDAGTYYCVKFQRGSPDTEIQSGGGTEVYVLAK

T5: BL6 mouse SIRP-α (mouse (C57BL/6 strain), UniProt P97797 32-148)
T5 construct: also called C57BL/6
T5 sequence: T1 sequence

T6: C57BL/6 mouse SIRP-α D1 domain (mouse (C57BL/6 strain), UniProt P97797 32-148)
T6 sequence: T1 sequence

T7: BALB/c mouse SIRP-α D1 domain (mouse (BALB/c strain))
T7 chain: T3 chain

T8: NOD mouse SIRP-α D1 domain (mouse (NOD strain))
T8 chain: T4 chain

T9: mouse 129 SIRP-α D1 domain (mouse (129 strain), UniProt P97797 32-150)
T9 construct: also called m129
T9 chain: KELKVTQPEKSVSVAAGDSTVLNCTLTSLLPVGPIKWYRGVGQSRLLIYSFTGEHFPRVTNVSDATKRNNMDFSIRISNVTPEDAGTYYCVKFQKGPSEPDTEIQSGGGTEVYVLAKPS

B1: S218 (scFv, V domains shown)
VH: DVQLVESGGGVVRPGESLTLSCTASGFTFTSSTMNWVRQAPGEGLDWVSSISTSGVITYYADSVKGRATISRDNSKNTLYLRLFSLRADDTAIYYCATDTFDHWGPGTLVTVSS
VL: ALTQPASVSANPGETVKITCFGSSGNYGWFQQKSPGSAPVTVIHYNNKRPSDIPSRFSGSKSGSTGTLTITGVRAEDEAVYFCGAWETGSATFGAGTTLTVL
notes: scFv-Fc format (VL-linker-VH on human IgG1 Fc)
B2: antibody 136 variant, light chain Mut / heavy chain wt (antibody, V domains shown)
VH: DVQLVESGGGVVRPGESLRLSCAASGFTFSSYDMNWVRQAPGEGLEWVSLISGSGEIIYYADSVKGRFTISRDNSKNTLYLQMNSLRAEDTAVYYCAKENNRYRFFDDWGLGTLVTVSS
VL: EIVLTQSPGTLSLSPGERATLSCRASQSVYTYLAWYQQKPGQAPRLLIYGASSRATGIPDRFSGSGSGTEFTLTISSLQSEDFAVYYCQQYYDRPPLTFGGGTKVEIK
B3: antibody 136 variant, light chain Mut / heavy chain Mut (antibody, V domains shown)
VH: EVQLVESGGGVVQPGRSLRLSCAASGFTFSSYDVNWVRQAPGKGLEWVSLISGSGEIIYYADSVKGRFTISRDNSKNTLYLQMNSLRAEDTAVYYCAKENNRYRFFDDWGQGTLVTVSS
VL: B2 VL
B4: antibody 136 variant, light chain Mut_S22T / heavy chain Mut (antibody, V domains shown)
VH: B3 VH
VL: B2 VL with S22T
B5: antibody 136 variant, light chain Mut_Q38E / heavy chain Mut (antibody, V domains shown)
VH: B3 VH
VL: B2 VL with Q38E
B6: antibody 136 variant, light chain Mut_S12T / heavy chain Mut (antibody, V domains shown)
VH: B3 VH
VL: B2 VL with S12T
B7: AB25c (antibody, mouse IgG2a, V domains shown)
VH: DVQLVESGGGVVRPGESLRLSCEASGFTFSSNAMSWVRQAPGKGLEWVAGISSGSDTYYGDSVKGRLTISRDNSKNILYLQMNSLTAEDTAVYYCARETWNHLFDYWGLGTLVTVSS
VL: ALTQPASVSANPGETVEITCSGGSYSSYYYAWYQQKSPGSAPVTLIYSDDKRPSNIPSRFSGSASGSTATLTITGVRAEDEAVYFCGGYDQSSYTNPFGAGTTLTVL
notes: Full-length mouse IgG2a
B8: AB21c (antibody, mouse IgG2a, V domains shown)
VH: DVQLVESGGGVVRPGESLRLSCAASGFTFSSNAMSWVRQAPGKGLEWLAGISAGGSDTYYPASVKGRFTISRDNSKNTLYLQMNTLTAEDTAVYYCARETWNHLFDYWGLGTLVTVSS
VL: ALTQPASVSANPGETVKIACSGGDYYSYYYGWYQQKAPGSALVTVIYSDDKRPSDIPSRFSGSASGSTATLTITGVRAEDEAVYYCGGYDYSTYANAFGAGTTLTVL
notes: Full-length mouse IgG2a
B9: AB66c (antibody, mouse IgG2a, V domains shown)
VH: B8 VH with N32Y, P61I, A62D, S75P, T78S, N84S, T85S
VL: ALTQPASVSANPGETVKITCSGGDYYSTYYAWYQQKSPGSAPVTVIHSDDKRPSDIPSRFSGSASGSAATLIITGVRVEDEAVYYCGGYDGRTYINTFGAGTTLTVL
notes: Full-length mouse IgG2a
B10: AB27c (antibody, mouse IgG2a, V domains shown)
VH: DVQLVESGGGVVRPGESLRLSCAVSGFRFSSYAMSWVRQAPGKGLEWVSGISSGGDTYYVDSVKGRFTISRDNSKNTLYLQVNSLTAEDTAIYYCARETWNHLFDYWGLGTLVTVSS
VL: ALTQPASVSADLGETVKITCSGGDSSSHYYGWYQQKSPGSAPVTVIYSDDERPSDIPSRFSGSASGSTATLTITGVRVEDEAIYYCGAYDGSTYANTFGAGTTLTVL
notes: Full-length mouse IgG2a

Assays:
[1] = biological target: T1, C57BL/6 mouse SIRP-α D1 domain; test: SPR
Outline: (§1)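 Pre-filtered culture media supplied the scFv-Fc antibody clones, which were captured by anti-human IgG Fc amine-coupled (about 4000 RU) to a GLC chip on a ProteOn XPR36. SIRP analytes were flowed in PBS pH 7.4 with 0.01% Tween-20 at 25° C. Interspot and buffer-blank responses were subtracted from the data, which were then fitted to a 1:1 Langmuir model. Dissociation rate constants (koff) were derived from this fitting.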

[2] = biological target: T2, cynomolgus SIRP-α D1 domain (cyno1); test: SPR, Langmuir fit
Outline: as §1

[3] = biological target: T10, human SIRP-α v1 D1 domain (human, UniProt P78324 31-149); test: SPR, Langmuir fit
T10 construct: also called human v1
Outline: as §1

human SIRPγ isoform 1 [4] = biological target: T11, human SIRPγ isoform 1 (human, UniProt Q9P1W8 29-147); test: SPR, Langmuir fit
T11 construct: also called SIRPg; sirpg
Outline: as §1
T11 sequence (Q9P1W8 29-147 limits assumed): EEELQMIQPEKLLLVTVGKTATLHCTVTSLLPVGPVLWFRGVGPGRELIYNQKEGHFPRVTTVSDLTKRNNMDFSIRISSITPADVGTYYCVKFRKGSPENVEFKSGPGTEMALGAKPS

[5] = biological target: T12, human SIRP-α v2 D1 domain (human); test: SPR, Langmuir fit
T12 construct: also called human v2
Outline: as §1

BALBc mouse SIRP-α = biological target: T3, BALBc mouse SIRP-α; test: SPR, antibody on GLC chip
Outline: (§2)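 Protein A-purified antibodies were diluted to 80 nM in 10 mM sodium acetate pH 4.5 and amine-coupled (~1000 RU) to a GLC chip of a ProteOn XPR36 biosensor. SIRP analytes were injected one-shot at 100, 33, 11, 3.7, 1.2 and 0 nM in PBS pH 7.4 with 0.01% Tween-20 at 25° C. Association ran 90 s at 100 μL/min and dissociation 1200 s. KD came from double-referenced data fitted globally to a Langmuir model, as kd/ka.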

human SIRP-α v2 = biological target: T13, human SIRP-α v2 (human); test: SPR, antibody on GLC chip
T13 construct: also called Human v2; Human V2
Outline: as §2

NOD mouse SIRP-α = biological target: T4, NOD mouse SIRP-α; test: SPR, antibody on GLC chip
Outline: as §2

BL6 mouse SIRP-α = biological target: T5, BL6 mouse SIRP-α; test: SPR, antibody on GLC chip
Outline: as §2

human SIRP-α v1 = biological target: T14, human SIRP-α v1 (human, UniProt P78324 31-149); test: SPR, antibody on GLC chip
T14 construct: also called Human v1; Human V1
Outline: as §2

human SIRPγ isoform 1 [6] = biological target: T15, human SIRPγ isoform 1 (human, UniProt Q9P1W8 29-147); test: SPR, antibody on GLC chip
T15 construct: also called Gamma; Human SIRPg
Outline: as §2
T15 sequence (Q9P1W8 29-147 limits assumed): as above

[7] = biological target: T6, C57BL/6 mouse SIRP-α D1 domain; test: SPR, ProteOn, antibody on chip
Method: (§3) All experiments were performed at 25° C. using a SPR-based ProteOn XPR36 biosensor (BioRad, Inc, Hercules, Calif.) equipped with GLC or NLC sensor chips. […] Purification was carried out by standard Protein A affinity column chromatography and eluted antibodies were stored in PBS buffer.
(§4) The running buffer was PBS pH 7.4 with 0.01% Tween-20 (PBST+). All analytes were used at their nominal concentrations as determined by A280 Absorbance and using their molar calculated extinction coefficient.
(§5) For the method using GLC chip, the analytes were injected and flowed over anti-SIRPα antibodies immobilized (˜1000 RUs) on GLC chips using Proteon™ Amine Coupling Kit. For the immobilization step, GLC chip was activated with EDAC/Sulpho-NHS 1:1 (Biorad) diluted 1/100 for 300 s at 25 μL/min. Anti-SIRPα antibodies were diluted to 80 nM concentration in 10 mM sodium acetate buffer pH 4.5 and immobilized to the chip at 30 μL/min for 50 s. Chip was inactivated with ethanolamine for 300 s at 25 μL/min. The analytes (e.g., SIRP-α from different species, SIRP-β, SIRP-γ) were injected in a “one-shot” kinetic mode at nominal concentrations of 100, 33, 11, 3.7, 1.2 and 0 nM. Association times were monitored for 90 s at 100 μL/min, and dissociation times were monitored for 1200 s. The surfaces were regenerated with a 2:1 v/v blend of Pierce IgG elution buffer/4M NaCl.

[8] = biological target: T7, BALB/c mouse SIRP-α D1 domain; test: SPR, ProteOn, antibody on chip
Method: as §3, §4, §5

[9] = biological target: T8, NOD mouse SIRP-α D1 domain; test: SPR, ProteOn, antibody on chip
Method: as §3, §5
(§6) Next, the binding kinetics of various antibody clones to selected mouse SIRP-α proteins were determined as described above. Mouse proteins that were tested include BALBc (SEQ ID NO:10), BL6 (SEQ ID NO:9), NOD (SEQ ID NO:8), and m129 (SEQ ID NO:7) SIRP-α proteins. Antibody clones labeled as “c” were tested as full-length mouse IgG2a antibodies; antibody clones labeled as “a” were tested as full-length human IgG1 antibodies with L234A, L235A, G237A, and N297A mutations.

[10] = biological target: T9, mouse 129 SIRP-α D1 domain; test: SPR, ProteOn, antibody on chip
Method: as §3, §5, §6

T13 sequence (chain, as listed by the source limits assumed): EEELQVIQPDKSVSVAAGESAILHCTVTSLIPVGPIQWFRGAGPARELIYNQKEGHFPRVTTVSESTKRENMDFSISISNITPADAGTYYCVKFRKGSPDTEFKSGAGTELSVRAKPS
T14 sequence (P78324 31-149 limits assumed): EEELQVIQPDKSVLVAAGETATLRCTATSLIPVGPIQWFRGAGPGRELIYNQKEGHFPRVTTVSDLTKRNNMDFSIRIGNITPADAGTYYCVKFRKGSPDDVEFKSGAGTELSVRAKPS
T12 sequence (chain, as listed by the source limits assumed): as the sequence (chain, as listed by the source limits assumed) above
T10 sequence (P78324 31-149 limits assumed): as the sequence (P78324 31-149 limits assumed) above

Binder | Kd (BALBc mouse SIRP-α) | Kd (human SIRP-α v2) | Kd (NOD mouse SIRP-α) | Kd (BL6 mouse SIRP-α) | Kd (human SIRP-α v1) | Kd (human SIRPγ isoform 1 [6]) | Kd [7] | koff [7] | kon [7] | Kd [8] | koff [8] | kon [8] | Kd [9] | koff [9] | kon [9] | Kd [10] | koff [10] | kon [10] | further results
B1 | – | – | – | – | – | – | – | – | – | – | – | – | – | – | – | – | – | – | binding result [1]: no binding (tested: Koff > 5 × 10^3 (legend)); koff [2]: 2.49e-05 s⁻¹; koff [3]: 7.06e-05 s⁻¹; koff (human SIRPγ isoform 1 [4]): 2.12e-05 s⁻¹; koff [5]: 5.47e-05 s⁻¹
B2 | 2.8 nM | 17.4 nM | 4.12 nM | 32.6 nM | 7.28 nM | 19.6 nM | – | – | – | – | – | – | – | – | – | – | – | – | –
B3 | 3.14 nM | 19.5 nM | 5.21 nM | 31.7 nM | 7.29 nM | 1.68 nM | – | – | – | – | – | – | – | – | – | – | – | – | –
B4 | 1.64 nM | 8.28 nM | 2.44 nM | 13.3 nM | 4.99 nM | 61.7 nM | – | – | – | – | – | – | – | – | – | – | – | – | –
B5 | 2.98 nM | 12.5 nM | 5.98 nM | 33.1 nM | 6.18 nM | 19.3 nM | – | – | – | – | – | – | – | – | – | – | – | – | –
B6 | 2.09 nM | 10.5 nM | 2.85 nM | 16.3 nM | 4.88 nM | 66.7 nM | – | – | – | – | – | – | – | – | – | – | – | – | –
B7 | – | – | – | – | – | – | 2.81 nM | 0.000399 s⁻¹ | 142000 M⁻¹ s⁻¹ | 9.64 nM | 0.00292 s⁻¹ | 303000 M⁻¹ s⁻¹ | 3.9 nM | 0.00143 s⁻¹ | 366000 M⁻¹ s⁻¹ | 0.0587 nM | 2.07e-05 s⁻¹ | 352000 M⁻¹ s⁻¹ | –
B8 | – | – | – | – | – | – | 0.876 nM | 0.000241 s⁻¹ | 276000 M⁻¹ s⁻¹ | 1.34 nM | 0.000618 s⁻¹ | 462000 M⁻¹ s⁻¹ | 0.64 nM | 0.000479 s⁻¹ | 749000 M⁻¹ s⁻¹ | 0.0588 nM | 3.31e-05 s⁻¹ | 563000 M⁻¹ s⁻¹ | –
B9 | – | – | – | – | – | – | 5.8 nM | 0.000619 s⁻¹ | 107000 M⁻¹ s⁻¹ | 3.41 nM | 0.000762 s⁻¹ | 224000 M⁻¹ s⁻¹ | 0.564 nM | 0.000232 s⁻¹ | 412000 M⁻¹ s⁻¹ | 0.0955 nM | 1.98e-05 s⁻¹ | 207000 M⁻¹ s⁻¹ | –
B10 | – | – | – | – | – | – | 9.49 nM | 0.0014 s⁻¹ | 147000 M⁻¹ s⁻¹ | 15 nM | 0.00226 s⁻¹ | 150000 M⁻¹ s⁻¹ | 3.42 nM | 0.00101 s⁻¹ | 296000 M⁻¹ s⁻¹ | 0.487 nM | 0.000101 s⁻¹ | 207000 M⁻¹ s⁻¹ | –
